Measurements: publication PMC11323494, “A network of acetyl phosphate-dependent modification modulates c-di-AMP homeostasis in Actinobacteria” (mBio, 2024)

Assays:
DisA [1] = biological target: T1, DisA (Saccharopolyspora erythraea, UniProt A4F6V9); test: HPLC of c-di-AMP formed (DAC assay); assay type: biochemical; conditions: 100 mM ATP, 10 mM MgCl2, 0.1 M NaCl, 40 mM Tris pH 7.5, 10 uM enzyme
T1 construct: recombinant His-tagged, pET28a(+), E. coli BL21(DE3); octamer
T1 sequence (A4F6V9 1-370): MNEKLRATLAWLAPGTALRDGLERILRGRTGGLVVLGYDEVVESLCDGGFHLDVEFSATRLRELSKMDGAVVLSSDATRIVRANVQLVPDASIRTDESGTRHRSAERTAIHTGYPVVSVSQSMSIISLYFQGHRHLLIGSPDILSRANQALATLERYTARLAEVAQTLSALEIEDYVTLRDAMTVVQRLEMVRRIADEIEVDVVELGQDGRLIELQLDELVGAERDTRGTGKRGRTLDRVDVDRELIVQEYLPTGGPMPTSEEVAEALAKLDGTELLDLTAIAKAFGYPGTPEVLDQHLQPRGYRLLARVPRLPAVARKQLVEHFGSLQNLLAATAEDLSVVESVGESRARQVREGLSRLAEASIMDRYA

DisA [2] = biological target: T1, DisA; test: DAC activity by HPLC after […] h preincubation; acetylation by anti-AcK blot and LC-MS/MS; assay type: biochemical; conditions: covalent; lysine acetylation (K66, K284); 10 mM AcP, 5 h, 37 C, 50 mM HEPES pH 7.5; substrate ATP
DasR = biological target: T2, DasR (Saccharopolyspora erythraea, UniProt A4F723); test: in vitro acetylation, anti-AcK Western blot; assay type: binding; conditions: covalent; lysine acetylation; 10 mM AcP, 0-5 h, 37 C, 50 mM HEPES pH 7.5
T2 construct: gene SACE_0500; recombinant His-tagged, pET28a(+), E. coli BL21(DE3); dimer
T2 sequence (A4F723 1-251): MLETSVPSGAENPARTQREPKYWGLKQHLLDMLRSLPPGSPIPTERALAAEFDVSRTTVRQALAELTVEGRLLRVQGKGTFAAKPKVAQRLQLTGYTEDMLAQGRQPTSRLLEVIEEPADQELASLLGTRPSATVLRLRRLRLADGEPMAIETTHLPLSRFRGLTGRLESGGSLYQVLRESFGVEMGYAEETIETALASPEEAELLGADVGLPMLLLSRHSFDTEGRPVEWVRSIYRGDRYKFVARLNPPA

[3] = biological target: DNA integrity scanning protein (DisA), nonacetylated (Saccharopolyspora erythraea) (UniProt A4F6V9); test: cross-linking; purified protein in 20 mM bicine pH 8.0, 150 mM NaCl, 10 mM MgCl2, 0.2% n-octyl-beta-D-glucopyranoside, 8% glycerol; 1 mM disuccinimidyl suberate, room temperature, 1 h; 15% SDS-PAGE, Coomassie blue; bands quantified by densitometry; self-association (DisA monomer and octamer, DasR monomer and dimer)
[4] = biological target: DasR, nonacetylated (GntR-family global regulator) (Saccharopolyspora erythraea); test: as above
DasR K78Q variant = test: cross-linking, gel band densitometry (ImageJ); conditions: parent: 100
DasR^K78R = test: cross-linking, gel band densitometry (ImageJ); conditions: parent: 100
[5] = test system: DasR WT (Saccharopolyspora erythraea NRRL2338); test: BLI; conditions: BLI: 10 mM HEPES pH 8.0, 2 mM MgCl2, 0.1 mM EDTA, 200 mM KCl (running buffer + 10 µg/mL BSA, 0.02% Tween-20), SA sensor, temperature not stated; EMSA: 5 nM …

In the case of `Nc1ncnc2c1ncn2[C@@H]1O[C@H](COP(=O)(O)OP(=O)(O)OP(=O)(O)O)[C@@H](O)[C@H]1O` [ATP], the “HPLC of c-di-AMP formed (DAC assay)” value (DisA [1]) is reported as “started by the addition of 100-mM ATP”.

For `CC(=O)OP(=O)(O)O` [acetyl phosphate], the “DAC activity reduction (%)” value (DisA [2]) was ~ 75% and the “in vitro acetylation, anti-AcK Western blot” value (DasR) was “In vitro acetylation further confirmed that DasR was acetylated by AcP”.

For “DNA integrity scanning protein (DisA), nonacetylated (from UniProt A4F6V9 1-370) (enzyme)”, the stoichiometry N [3] was 8.

For “DasR, nonacetylated (GntR-family global regulator) (natural protein)”, the stoichiometry N [4] was 2.

In the case of “DasR, nonacetylated (GntR-family global regulator) K78Q”, the other: relative monomer level (relative monomer level (WT = 100)) (DasR K78Q variant) is reported as 230 and the percent of parent (relative dimer level (WT = 100)) (DasR K78Q variant) is reported as 42.

“DasR, nonacetylated (GntR-family global regulator) K78R” showed an other: relative monomer level (relative monomer level (WT = 100)) (DasR^K78R) of 140 and a percent of parent (relative dimer level (WT = 100)) (DasR^K78R) of 89.

In the case of disA promoter probe, the Kd [5] is reported as 400 nM.
